Data reported in patent US20170129959A1.

What was measured:
[1] = biological target: Recombinant hCD127 (Sino Biologicals, reference 10975-H08H) (human) (UniProt P16871); test: ELISA on immobilised recombinant hCD127
[2] = biological target: Recombinant hCD127 (Sino Biologicals, reference 10975-H08H) (human) (UniProt P16871); test: ELISA, recombinant hCD127 coated on plastic at 1 µg/ml, antibody titrated; printed as ED 50
[3] = biological target: Recombinant CD127 Fc Chimera (10975-H03H, Sino Biological) (human) (UniProt P16871); test: SPR (Biacore 3000), CD127Fc immobilised on CM5 chip, antibody injected, Bivalent analyte model
[4] = biological target: Human CD127 (IL-7 receptor alpha chain) expressed on cells (human) (UniProt P16871); test: cell-based or functional assay
Sequence of Human CD127 (IL-7 receptor alpha chain) expressed on cells (human) (P16871 21-459 I66T/V138I): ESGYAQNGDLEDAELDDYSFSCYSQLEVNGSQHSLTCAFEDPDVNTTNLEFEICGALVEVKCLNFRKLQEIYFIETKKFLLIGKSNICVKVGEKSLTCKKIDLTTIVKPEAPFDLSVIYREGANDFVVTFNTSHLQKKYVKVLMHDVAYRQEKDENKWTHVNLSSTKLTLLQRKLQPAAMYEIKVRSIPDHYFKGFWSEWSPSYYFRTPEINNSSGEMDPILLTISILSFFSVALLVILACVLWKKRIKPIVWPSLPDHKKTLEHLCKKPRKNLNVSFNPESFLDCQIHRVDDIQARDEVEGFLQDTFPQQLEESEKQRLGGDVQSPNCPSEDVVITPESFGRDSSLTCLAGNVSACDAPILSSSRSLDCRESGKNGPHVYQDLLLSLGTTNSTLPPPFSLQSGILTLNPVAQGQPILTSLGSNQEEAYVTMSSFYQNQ

Sequence of Recombinant CD127 Fc Chimera (10975-H03H, Sino Biological) (human) (P16871 21-239 I66T/V138I limits assumed): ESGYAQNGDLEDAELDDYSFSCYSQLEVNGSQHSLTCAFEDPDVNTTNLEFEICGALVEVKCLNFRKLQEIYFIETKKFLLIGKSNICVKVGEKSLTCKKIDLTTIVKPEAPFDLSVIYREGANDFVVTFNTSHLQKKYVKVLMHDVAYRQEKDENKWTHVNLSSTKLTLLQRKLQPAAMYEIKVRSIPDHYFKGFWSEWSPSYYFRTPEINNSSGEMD
Sequence of Recombinant hCD127 (Sino Biologicals, reference 10975-H08H) (human) (P16871 21-239 I66T/V138I limits assumed): as above

Row | Binder | EC50 (read off the curve) [1] [µg/mL] | EC50 [2] [µg/mL] | Ka [3] [M⁻¹] | Kd [3] [pM] | koff [3] [s⁻¹] | kon [3] [M⁻¹ s⁻¹] | inhibition of IL-7 induced pSTAT5+ T lymphocytes (% inhibition at 1000 ng/mL) [4]
1 | MD707-1 (rat anti-human CD127 antibody, previous generation) (antibody, from another filing, V domains shown) VH: AVHLVESGGGLVQPKESLKISCAASGFTFSNAAMFWVRQAPGKGLEWVARIRTKANNYATYYADSVKGRFTISRDDSKSMVYLQMDNVKTDDTAMYYCIVVVLTTTRDYFDYWGQGVMVTVSS VL: DIVLTQAPLSVSVTPGESASISCRSSQSLLTVKGITSLYWFLQKPGKSPQLLMYRMSNLASGVPDRFRGSGSETDFTLKISKVETEDVGVYYCAQFLEYPHTFGAGTKLELKR | 0.1 | 0.123 | 2.19e+09 | 456 | 0.000121 | 266000 | 
2 | MD707-13 (anti-human CD127 antibody, WO2013/056984) (antibody, from another filing, V domains shown) VH: QLKESGPGLVQPSQTLSLTCTVSGLSLPNNNIAWIRQSPGKGLEWMGVIWSNGDTDYNSAIRSRLSISRDSSKSQVFLRMNSLQSEDTAMYFCAREGMTTLDYWGQGVVVTVSS VL: EIVLTQSPTTMAASPGEKVTITCRASSSVSYMHWFQQKSGSSPKPWIYDSSDLASGVPDRFSGSGSGTSYSLTISSMEAEDAATYYCLQRSSYPRTFGGGTKLELKR |  |  |  |  |  |  | 50
